Laboratory results as given in the supplement of paper PMC7125110.
± gives the standard error. This sample holds only a part of the variants without activity.

B1: glmS ribozyme (parent)
chain: AUAAAAGCGCCAGAACUACAGAAAUGUAGUUGACGAGGAGGAGGUUUAUCGAAUUUUCGGCGGAUGCCUCCAAA

Experiments:
Conditions in all cases: with glucosamine-6-phosphate
glucosamine-6-phosphate [1] = variants of: B1; experiment: self-cleavage kobs at 640 uM GlcN6P; higher = faster cleavage; RNA array
Outline: (§1)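 Tracking of barcoded ribozyme variants used a hybridised Cy3 probe at 37 °C, after in situ transcription by E. coli RNA polymerase on sequenced MiSeq chips. The flowed solution held 40 μM to 10 mM glucosamine-6-phosphate in HEPES/KCl/Mg(OAc)2 buffer, and imaging ran over ~14 h. kobs was taken from exponential decay fits of normalised per-tile medians, and kcat and KM from weighted Michaelis–Menten fits.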

glucosamine-6-phosphate [2] = variants of: B1; experiment: self-cleavage kobs at 2500 uM GlcN6P; higher = faster cleavage; RNA array
Outline: as §1

glucosamine-6-phosphate [3] = variants of: B1; experiment: self-cleavage kobs at 10000 uM GlcN6P; higher = faster cleavage; RNA array
Outline: as §1

Row | Variant | self-cleavage kobs at 640 uM GlcN6P (glucosamine-6-phosphate [1]) | self-cleavage kobs at 2500 uM GlcN6P (glucosamine-6-phosphate [2]) | self-cleavage kobs at 10000 uM GlcN6P (glucosamine-6-phosphate [3])
1 | G9A G63U C70U | < 1e-05 s⁻¹ | – | –
2 | A6U A15U G40U G43C | < 1e-05 s⁻¹ | – | –
3 | A33C G41U U47G U65C C68A | < 1e-05 s⁻¹ | – | –
4 | C10A A53G C70G | 0.000157 ± 4.8e-05 s⁻¹ | 0.000151 ± 4.6e-05 s⁻¹ | –
5 | A18C U56C U65G | 5.82e-05 ± 2.6e-05 s⁻¹ | 0.000131 ± 6.1e-05 s⁻¹ | –
6 | U30A G37A U56A | 5.62e-05 ± 1.7e-05 s⁻¹ | – | –
7 | C61G A64G C71G | 0.000141 ± 3.7e-05 s⁻¹ | – | –
8 | G13U C16U G29A | 0.000601 ± 0.00017 s⁻¹ | – | –
9 | A36U U46C C50U C58U G59C C67A | < 1e-05 s⁻¹ | – | –
10 | C8A C16U G38A | < 1e-05 s⁻¹ | – | < 1e-05 s⁻¹
11 | U2C G32U G44A U47G | < 1e-05 s⁻¹ | < 1e-05 s⁻¹ | –
12 | A14C C61U C68G | 0.0001 ± 3.3e-05 s⁻¹ | – | –
13 | C11U C67A C71U | 4.57e-05 ± 1.8e-05 s⁻¹ | 5.18e-05 ± 1.8e-05 s⁻¹ | –
14 | A15G C16A C58A A64U C70U | 8e-05 ± 1.9e-05 s⁻¹ | – | –
15 | A6G G63C C67A | < 1e-05 s⁻¹ | – | –
16 | A14C A36G U49C | < 1e-05 s⁻¹ | < 1e-05 s⁻¹ | –
17 | G35C A52U C67U C68A | < 1e-05 s⁻¹ | – | –
18 | C34U C68U C70U | < 1e-05 s⁻¹ | – | –
19 | C11A U46G C61G | < 1e-05 s⁻¹ | < 1e-05 s⁻¹ | –
20 | A42G A64G C71G | 0.000615 ± 0.00014 s⁻¹ | 0.00107 ± 0.0003 s⁻¹ | 0.000757 ± 0.00025 s⁻¹
21 | A6G U47G C61A A64U | < 1e-05 s⁻¹ | – | –
22 | A12C C58U C70U | 6.75e-05 ± 2.5e-05 s⁻¹ | 7.09e-05 ± 3.2e-05 s⁻¹ | –

Row | Variant | self-cleavage kobs at 640 uM GlcN6P (glucosamine-6-phosphate [1]) | self-cleavage kobs at 2500 uM GlcN6P (glucosamine-6-phosphate [2]) | self-cleavage kobs at 10000 uM GlcN6P (glucosamine-6-phosphate [3])
23 | U30G G32A C68U | 7.55e-05 ± 3.7e-05 s⁻¹ | – | –
24 | C34U A64U G66C | < 1e-05 s⁻¹ | – | –
25 | G38A G44C C67U C71A | < 1e-05 s⁻¹ | < 1e-05 s⁻¹ | –
26 | U31C G37A | 0.000113 ± 2.3e-05 s⁻¹ | 0.000119 ± 1.8e-05 s⁻¹ | 0.000359 ± 3.4e-05 s⁻¹
27 | A52C U56C C67U | < 1e-05 s⁻¹ | – | –
28 | C11U G29U G37C C70A | 0.000166 ± 5.6e-05 s⁻¹ | – | –
29 | A33G A36C U54C | < 1e-05 s⁻¹ | < 1e-05 s⁻¹ | < 1e-05 s⁻¹
30 | G13U G37U G40A U69G | < 1e-05 s⁻¹ | < 1e-05 s⁻¹ | < 1e-05 s⁻¹
31 | C11A A53G G63A | < 1e-05 s⁻¹ | – | –
32 | A23C U69A | 0.000292 ± 0.0001 s⁻¹ | 0.000135 ± 2.9e-05 s⁻¹ | 9.83e-05 ± 4.3e-05 s⁻¹
33 | C8A C11U G60C C67A | < 1e-05 s⁻¹ | < 1e-05 s⁻¹ | < 1e-05 s⁻¹
34 | A39U A42C C50G | < 1e-05 s⁻¹ | – | < 1e-05 s⁻¹
35 | G32A G51U A52U G60C G62C | < 1e-05 s⁻¹ | – | –
36 | G7C U69A C70U | < 1e-05 s⁻¹ | – | –
37 | U31A A39C C50G C71A | < 1e-05 s⁻¹ | < 1e-05 s⁻¹ | < 1e-05 s⁻¹
38 | C8U U31G C34U U47A | < 1e-05 s⁻¹ | – | –
39 | A12G U30A G44A | < 1e-05 s⁻¹ | – | –
40 | A12U A33G A48C | < 1e-05 s⁻¹ | < 1e-05 s⁻¹ | –
41 | G38C G43U A64C | < 1e-05 s⁻¹ | < 1e-05 s⁻¹ | –
42 | G41A A42G U45G | 0.0066 ± 0.002 s⁻¹ | – | –
43 | A14U G29C A48G U65A | < 1e-05 s⁻¹ | – | –
44 | A12U G13U G32U A64G | < 1e-05 s⁻¹ | – | –

Row | Variant | self-cleavage kobs at 640 uM GlcN6P (glucosamine-6-phosphate [1]) | self-cleavage kobs at 2500 uM GlcN6P (glucosamine-6-phosphate [2]) | self-cleavage kobs at 10000 uM GlcN6P (glucosamine-6-phosphate [3])
45 | C10U G35C G60A | < 1e-05 s⁻¹ | < 1e-05 s⁻¹ | –
46 | G35C G38A A64G | < 1e-05 s⁻¹ | < 1e-05 s⁻¹ | –
47 | U47A C58U U65C | < 1e-05 s⁻¹ | – | –
48 | G7U U30G G63U | < 1e-05 s⁻¹ | – | –
49 | A12G G38C C68G | < 1e-05 s⁻¹ | < 1e-05 s⁻¹ | –
50 | C16A G38U U47A | < 1e-05 s⁻¹ | – | –
51 | G9C G41U G44C | < 1e-05 s⁻¹ | – | –
52 | A12C G44U | 9.03e-05 ± 1.7e-05 s⁻¹ | 8.38e-05 ± 2.6e-05 s⁻¹ | 0.000382 ± 5.4e-05 s⁻¹
53 | C11A A14C G44A G66U | < 1e-05 s⁻¹ | < 1e-05 s⁻¹ | –
54 | A6C U30A C67G | < 1e-05 s⁻¹ | – | –
55 | G9C A39U A42C U56G | < 1e-05 s⁻¹ | – | –
56 | A15U G35U A39C | < 1e-05 s⁻¹ | < 1e-05 s⁻¹ | –
57 | U30C G38U A42U | < 1e-05 s⁻¹ | – | < 1e-05 s⁻¹
58 | A14U A15G A64C | < 1e-05 s⁻¹ | – | –
59 | A48U U49A C68A | < 1e-05 s⁻¹ | – | –
60 | U30C G32U C34G G51U | < 1e-05 s⁻¹ | < 1e-05 s⁻¹ | –
61 | A12U A15G G41A C61A | < 1e-05 s⁻¹ | – | –
62 | G29C C70G | 8e-05 ± 1.4e-05 s⁻¹ | 2.33e-05 ± 8.6e-06 s⁻¹ | 4e-05 ± 1.4e-05 s⁻¹
63 | G13U A64U C70G | < 1e-05 s⁻¹ | – | –
64 | G40A A42U A48U | < 1e-05 s⁻¹ | – | –
65 | A36U A39G U45G C61U G62C | < 1e-05 s⁻¹ | < 1e-05 s⁻¹ | < 1e-05 s⁻¹
